Test results as given in patent US20140274782A1, “AFFINITY REAGENTS AND METHODS FOR DETECTION, PURIFICATION, AND PROTEOMIC ANALYSIS OF METHYLATED PROTEINS” (The Board of Trustees of the Leland Stanford Junior …, priority 2013, published 2014).

Columns and labels:
3×MBT domain of L3MBTL1 = assay: Triple SILAC pull-down, 3xMBT/3xMBTD355N ratio (cytoplasmic, nuclear and chromatin fractions of 293T cells); format: binding, human; settings: SILAC ratio 3xMBT vs 3xMBTD355N pull-down, 293T cells, all values in log base 2;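 also: proteins quantified with MaxQuant, requiring at least two unique peptides and quantification in both label directions, normalized to the mean of proteins from a digested loading control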
G9a and GLP = biological target: T1, G9a and GLP (Homo sapiens, UniProt Q96KQ7+Q9H9B1); assay: Triple SILAC pull-down after UNC0638 treatment of 293T cells, DMSO/UNC0638 ratio of protein captured by 3×MBT; format: cell-based; design: cells were treated for 24 hours with UNC0638 at 2.5 μM or DMSO vehicle control; endogenous in cells; host or cells: HEK 293T; settings: all values in log base 2;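 also: mass spectrometry (Q-Exactive) SILAC quantitation, DMSO/UNC0638 ratio computed after subtracting 3×MBTD355N mutant pull-down background, only proteins with at least twofold 3×MBT over mutant signal considered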
T1 sequence (Q96KQ7 2-1210 limits assumed): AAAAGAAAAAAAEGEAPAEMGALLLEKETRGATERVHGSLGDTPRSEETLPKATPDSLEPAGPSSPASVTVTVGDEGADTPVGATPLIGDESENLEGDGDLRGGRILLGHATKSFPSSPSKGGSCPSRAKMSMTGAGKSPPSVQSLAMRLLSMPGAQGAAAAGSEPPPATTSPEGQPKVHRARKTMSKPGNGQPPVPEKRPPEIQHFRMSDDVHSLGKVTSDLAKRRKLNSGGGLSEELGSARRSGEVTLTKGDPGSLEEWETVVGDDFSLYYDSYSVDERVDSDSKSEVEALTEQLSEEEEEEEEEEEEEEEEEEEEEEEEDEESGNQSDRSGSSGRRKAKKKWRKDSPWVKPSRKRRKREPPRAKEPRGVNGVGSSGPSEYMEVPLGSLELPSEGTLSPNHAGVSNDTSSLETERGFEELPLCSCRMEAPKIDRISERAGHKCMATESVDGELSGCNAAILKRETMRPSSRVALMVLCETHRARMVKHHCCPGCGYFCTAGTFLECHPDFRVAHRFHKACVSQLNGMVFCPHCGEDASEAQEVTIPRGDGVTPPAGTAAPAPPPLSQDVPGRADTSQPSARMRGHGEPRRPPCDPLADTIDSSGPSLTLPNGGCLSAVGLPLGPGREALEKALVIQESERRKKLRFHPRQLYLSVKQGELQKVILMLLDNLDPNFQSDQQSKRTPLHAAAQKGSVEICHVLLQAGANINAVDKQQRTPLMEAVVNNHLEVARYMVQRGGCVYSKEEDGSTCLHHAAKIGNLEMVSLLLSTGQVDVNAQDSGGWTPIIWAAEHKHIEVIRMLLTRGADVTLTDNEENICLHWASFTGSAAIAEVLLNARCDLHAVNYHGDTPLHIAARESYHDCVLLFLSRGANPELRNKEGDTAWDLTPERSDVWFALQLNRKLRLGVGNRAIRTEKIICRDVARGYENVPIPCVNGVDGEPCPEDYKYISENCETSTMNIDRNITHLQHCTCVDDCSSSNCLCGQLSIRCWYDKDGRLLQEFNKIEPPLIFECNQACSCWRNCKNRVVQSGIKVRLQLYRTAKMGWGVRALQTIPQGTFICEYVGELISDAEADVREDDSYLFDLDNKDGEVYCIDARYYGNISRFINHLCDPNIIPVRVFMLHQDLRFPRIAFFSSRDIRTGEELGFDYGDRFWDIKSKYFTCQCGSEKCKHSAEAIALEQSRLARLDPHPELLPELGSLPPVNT
T1 sequence (Q9H9B1 2-1298 limits assumed): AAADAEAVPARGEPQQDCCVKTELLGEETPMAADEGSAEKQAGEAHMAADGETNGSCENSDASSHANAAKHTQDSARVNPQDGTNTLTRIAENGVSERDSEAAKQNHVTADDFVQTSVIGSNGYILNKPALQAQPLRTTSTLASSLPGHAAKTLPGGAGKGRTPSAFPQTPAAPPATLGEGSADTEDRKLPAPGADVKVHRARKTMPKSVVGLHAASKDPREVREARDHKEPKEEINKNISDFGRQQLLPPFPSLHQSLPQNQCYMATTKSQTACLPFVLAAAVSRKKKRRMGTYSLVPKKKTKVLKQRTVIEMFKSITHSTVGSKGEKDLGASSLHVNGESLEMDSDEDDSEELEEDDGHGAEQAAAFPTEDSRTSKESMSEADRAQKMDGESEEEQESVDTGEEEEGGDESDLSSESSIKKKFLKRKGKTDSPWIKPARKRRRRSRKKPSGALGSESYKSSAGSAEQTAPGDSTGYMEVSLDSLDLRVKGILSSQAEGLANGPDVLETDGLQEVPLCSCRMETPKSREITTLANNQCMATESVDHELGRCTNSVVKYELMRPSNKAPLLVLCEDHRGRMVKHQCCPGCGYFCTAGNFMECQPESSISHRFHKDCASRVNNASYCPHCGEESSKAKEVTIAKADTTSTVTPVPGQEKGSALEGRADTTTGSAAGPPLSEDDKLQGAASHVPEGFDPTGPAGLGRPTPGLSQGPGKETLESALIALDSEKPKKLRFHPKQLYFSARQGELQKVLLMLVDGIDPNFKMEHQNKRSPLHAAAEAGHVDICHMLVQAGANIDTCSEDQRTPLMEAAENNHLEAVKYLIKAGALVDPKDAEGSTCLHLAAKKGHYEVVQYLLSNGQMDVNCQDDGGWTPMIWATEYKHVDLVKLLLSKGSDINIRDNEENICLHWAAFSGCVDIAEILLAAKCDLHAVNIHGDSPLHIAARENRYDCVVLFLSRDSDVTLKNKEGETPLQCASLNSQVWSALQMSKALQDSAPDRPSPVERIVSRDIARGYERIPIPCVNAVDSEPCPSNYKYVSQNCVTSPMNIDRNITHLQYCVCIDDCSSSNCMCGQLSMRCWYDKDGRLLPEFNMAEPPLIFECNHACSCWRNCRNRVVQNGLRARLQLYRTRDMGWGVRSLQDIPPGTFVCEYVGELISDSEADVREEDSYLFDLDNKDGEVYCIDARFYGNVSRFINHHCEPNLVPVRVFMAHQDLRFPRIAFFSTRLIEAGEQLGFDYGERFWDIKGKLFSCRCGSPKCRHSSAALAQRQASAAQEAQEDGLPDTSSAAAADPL

Relative to UNC0638 UNC Heavy (G9a and GLP; SILAC ratio DMSO relative to UNC0638, pull-down with 3xMBT, UNC0638 in heavy SILAC media): 0.59 log base 2
Relative to UNC0638 UNC Light (G9a and GLP; SILAC ratio DMSO relative to UNC0638, pull-down with 3xMBT, UNC0638 in light SILAC media): −0.85 log base 2
Relative to UNC0638 Average (G9a and GLP; average of UNC Light and UNC Heavy experiments): −0.13 log base 2
B1: SCML2: protein with methylated lysine identified in 3xMBT pull-down (protein, UniProt Q9UQR0 1-700, looked up)
Sex comb on midleg-like …: MGQTVNEDSMDVKKENQEKTPQSSTSSVQRDDFHWEEYLKETGSISAPSECFRQSQIPPVNDFKVGMKLEARDPRNATSVCIATVIGITGARLRLRLDGSDNRNDFWRLVDSPDIQPVGTCEKEGDLLQPPLGYQMNTSSWPMFLLKTLNGSEMASATLFKKEPPKPPLNNFKVGMKLEAIDKKNPYLICPATIGDVKGDEVHITFDGWSGAFDYWCKYDSRDIFPAGWCRLTGDVLQPPGTSVPIVKNIAKTESSPSEASQHSMQSPQKTTLILPTQQVRRSSRIKPPGPTAVPKRSSSVKNITPRKKGPNSGKKEKPLPVICSTSAASLKSLTRDRGMLYKDVASGPCKIVMSTVCVYVNKHGNFGPHLDPKRIQQLPDHFGPGPVNVVLRRIVQACVDCALETKTVFGYLKPDNRGGEVITASFDGETHSIQLPPVNSASFALRFLENFCHSLQCDNLLSSQPFSSSRGHTHSSAEHDKNQSAKEDVTERQSTKRSPQQTVPYVVPLSPKLPKTKEYASEGEPLFAGGSAIPKEENLSEDSKSSSLNSGNYLNPACRNPMYIHTSVSQDFSRSVPGTTSSPLVGDISPKSSPHEVKFQMQRKSEAPSYIAVPDPSVLKQGFSKDPSTWSVDEVIQFMKHTDPQISGPLADLFRQHEIDGKALFLLKSDVMMKYMGLKLGPALKLCYYIEKLKEGKYS
3xMBT/D355N UNC Heavy (3×MBT domain of L3MBTL1; experiment with UNC0638 in heavy SILAC media): 1.39 log base 2
3xMBT/D355N UNC Light (3×MBT domain of L3MBTL1; experiment with UNC0638 in light SILAC media): 1.28 log base 2
